Assay results taken from paper PMC13581288, “The chromokinesin Kid (KIF22) forms a homodimer, moves processively along microtubules, and transports double-stranded DNA” (eLife, 2024).

B1: full-length Xenopus Kid tagged with mScarlet (XKidFL-mScarlet) (natural protein, UniProt Q9I869 1-651, looked up)
chain: MVLTGPLQRESVSMAKRVSMLDQHKKSSCARVRVAVRLRPYMDEKDEAKATTVCVRGLDSQSLEIVNWRNQLETMQYQFDAFYGDSASQREIYMGSVCHILPHLLIGQNASVFAYGPTGAGKTHTMLGNPNQPGVIPRAVRDLLQMSRTAASAPENENWTYTINMSYVEIYQEKVMDLLEPKNKDLPIREDKDHNILIPGVTQKMINSFADFDEHFIPASQNRTVASTKLNDRSSRSHAVLLIKVQKSQQVVPFRQLTGKLYLIDLAGSEDNRRTGNQGIRLKESGAINSSLFTLSKVVDALNQGLPRIPYRDSKLTRLLQDSLGGSAHSVMITNIAPEQTYYFDTLTALNFAAKSKQIINKPFSQETTQTVVQPAMKRPREETGHIAGSQKRKKSKNDSTESSPNSSMDTAGKQKLNLATLDPAVVERLLKLDKILTEKGKKKAQLLSTPKRERMALLKKWEESQMEIERLKEKQKELEQKAMEAEARLEKSNNSDLSDSSVSENTFRAPLRGRNTSTAKVKKVLRVLPMQGNSQLQSTVEEGIPVFEKKKKKKQVTCEGLENQPTWEMNMRTDLLESGKERILKLLNTGSVKELKSLQRIGDKKAKLIIGWREVNGPFKNVEELACLEGISAKQVSSFIKANIMSSIAS
notes: Kid (Kif22.S), Xenopus, full length; cDNA corresponding to GenBank BC070549.1; also called XKid-mScarlet; Full-length XKid; not shown: mScarlet, C-terminal, kept
B2: full-length human Kid tagged with mNeonGreen (hKidFL-mNeonGreen) (natural protein, UniProt Q14807 1-665, looked up)
chain: MAAGGSTQQRRREMAAASAAAISGAGRCRLSKIGATRRPPPARVRVAVRLRPFVDGTAGASDPPCVRGMDSCSLEIANWRNHQETLKYQFDAFYGERSTQQDIYAGSVQPILRHLLEGQNASVLAYGPTGAGKTHTMLGSPEQPGVIPRALMDLLQLTREEGAEGRPWALSVTMSYLEIYQEKVLDLLDPASGDLVIREDCRGNILIPGLSQKPISSFADFERHFLPASRNRTVGATRLNQRSSRSHAVLLVKVDQRERLAPFRQREGKLYLIDLAGSEDNRRTGNKGLRLKESGAINTSLFVLGKVVDALNQGLPRVPYRDSKLTRLLQDSLGGSAHSILIANIAPERRFYLDTVSALNFAARSKEVINRPFTNESLQPHALGPVKLSQKELLGPPEAKRARGPEEEEIGSPEPMAAPASASQKLSPLQKLSSMDPAMLERLLSLDRLLASQGSQGAPLLSTPKRERMVLMKTVEEKDLEIERLKTKQKELEAKMLAQKAEEKENHCPTMLRPLSHRTVTGAKPLKKAVVMPLQLIQEQAASPNAEIHILKNKGRKRKLESLDALEPEEKAEDCWELQISPELLAHGRQKILDLLNEGSARDLRSLQRIGPKKAQLIVGWRELHGPFSQVEDLERVEGITGKQMESFLKANILGLAAGQRCGAS
notes: Kid (KIF22), human, full length; cDNA corresponding to GenBank DQ895829.2; also called hKid-mNeonGreen; hKidFL-mNG; not shown: mNeonGreen, C-terminal, kept
B3: XKid(1-496)-mScarlet (domain or fragment, Xenopus, UniProt Q9I869 1-496, looked up)
chain: MVLTGPLQRESVSMAKRVSMLDQHKKSSCARVRVAVRLRPYMDEKDEAKATTVCVRGLDSQSLEIVNWRNQLETMQYQFDAFYGDSASQREIYMGSVCHILPHLLIGQNASVFAYGPTGAGKTHTMLGNPNQPGVIPRAVRDLLQMSRTAASAPENENWTYTINMSYVEIYQEKVMDLLEPKNKDLPIREDKDHNILIPGVTQKMINSFADFDEHFIPASQNRTVASTKLNDRSSRSHAVLLIKVQKSQQVVPFRQLTGKLYLIDLAGSEDNRRTGNQGIRLKESGAINSSLFTLSKVVDALNQGLPRIPYRDSKLTRLLQDSLGGSAHSVMITNIAPEQTYYFDTLTALNFAAKSKQIINKPFSQETTQTVVQPAMKRPREETGHIAGSQKRKKSKNDSTESSPNSSMDTAGKQKLNLATLDPAVVERLLKLDKILTEKGKKKAQLLSTPKRERMALLKKWEESQMEIERLKEKQKELEQKAMEAEARLEKSNNS
notes: deletion mutant made by PCR-based mutagenesis; also called XKid(1-497); not shown: mScarlet, C-terminal, kept
B4: KIF1A(1-393)LZ (other)
chain: MAGASVKVAVRVRPFNSREMSRDSKCIIQMSGSTTTIVNPKQPKETPKSFSFDYSYWSHTSPEDINYASQKQVYRDIGEEMLQHAFEGYNVCIFAYGQTGAGKSYTMMGKQEKDQQGIIPQLCEDLFSRINDTTNDNMSYSVEVSYMEIYCERVRDLLNPKNKGNLRVREHPLLGPYVEDLSKLAVTSYNDIQDLMDSGNKARTVAATNMNETSSRSHAVFNIIFTQKRHDAETNITTEKVSKISLVDLAGSERADSTGAKGTRLKEGANINKSLTTLGKVISALAEMDSGPNKNKKKKKTDFIPYRDSVLTWLLRENLGGNSRTAMVAALSPADINYDETLSTLRYADRAKQIRCNAVINEDPNNKLIRELKDEVTRLRDLLYAQGLGDITDLEDKVEELLSKNYHLENEVARL

Tests used:
[1] = target: KIF1AMD-XKidSt (chimera of the KIF1A motor domain with the neck linker and coiled-coil domain of XKid) (not stated | Xenopus); assay: SEC; Superdex 200 Increase 10/300 GL on an NGC system; micromolar protein concentrations; UNC-104(1-653)-sfGFP (or mScarlet for XKidCC-mScarlet) run as size marker
[2] = target: the molecule itself; assay: as above

Row | Molecule | stoichiometry N [1] | stoichiometry N [2]
1 | KIF1AMD-XKidSt (chimera of the KIF1A motor domain with the neck linker and coiled-coil domain of XKid) | 2 | –
2 | B1 | – | 2
3 | B2 | – | 2
4 | B3 | – | 2
5 | B4 | – | 2
